According to patent US20190119362A1:

Columns and labels:
[1] = target: aIgE-Fab (Fab fragment of Omalizumab) (Humanized antibody/IgG1κ); test: column breakthrough, 1 mg/mL aIgE-Fab, after 5 cycles of 50 mM NaOH for 30 minutes
[2] = target: aIgE-Fab (Fab fragment of Omalizumab) (Humanized antibody/IgG1κ); test: column breakthrough, 1 mg/mL aIgE-Fab, 0.33 mL/min
[3] = target: aIgE-Fab (Fab fragment of Omalizumab) (Humanized antibody/IgG1κ); test: ratio of 55% DBC for aIgE-Fab after against before 5 cycles of 50 mM NaOH
[4] = target: aTNFa-Fab (Fab fragment of Infliximab) (Chimeric antibody/IgG1κ); test: column breakthrough, 1 mg/mL aTNFa-Fab, quasi-static binding capacity at 55% breakthrough

Substance	55% DBC after the alkaline washing [1] [mg/mL]	55% DBC before the alkaline washing [2] [mg/mL]	binding capability maintained after alkaline treatment [3] [%]	55% DBC [4] [mg/mL-gel]
LB5t-Wild.4d (tetramer of B5 domain of PpL 312), immobilized on agarose carrier	21.9	23.6	92.8	
commercially available Protein L carrier (HiTrap Protein L, GE Healthcare Bioscience)				4.8
